Experimental data as given in the supplement of paper PMC10126150.
± gives the standard deviation of the averaged measurements.

What follows are sequences tested on ATP (assay: switch fluorescence ratio, 500 uM ATP over buffer (Cy3 cluster intensity, sum of 5 cycles each) (fold (ratio)); higher = stronger signal-on switching upon ATP binding; sequences stand for … in TCGTCGGCAGCGTCAGATGTGTATAAGAGACAGTTTTTTTTTTTTTTTTTTTTTTTTT…TC). Details: aptamer strand: ATP DNA aptamer (quencher-CACCTGGGGGAGTATTGCGGAGGAAGG + anchor), 100 nM annealed; ATP concentration: 500 uM.
Procedure, shortened: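 For every switch-domain sequence, the fluorescence ratio is the mean of per-cluster values, each being summed target-cycle Cy3 intensity over summed buffer-cycle Cy3 intensity. Clusters outside 100-1000 RFU were excluded. On a modified Illumina MiSeq flow-cell, the Cy3-labelled switching-strand clusters were annealed to 100 nM quencher-labelled ATP aptamer, imaged in selection buffer and then after 15 min with 500 uM ATP at 22 °C. Five such cycles were run, with NaOH stripping and re-annealing between them.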
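Also: ATP exposure 15 min at 22 °C before imaging.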

Sequence | switch fluorescence ratio
TGTGTTCACT | 1.01 ± 0.036
AGGATGTGCT | 0.9655 ± 0.006
TTAGAAGGGG | 0.993 ± 0.015
TGGTGGAAAC | 0.99116 ± 0.00084
GGCCGAGTTA | 1.013 ± 0.0036
ATTTGCATGC | 1 ± 0.012
ATTTCAAATA | 1.01 ± 0.043
CGGGACGCGT | 1.021 ± 0.0039
GGGGATACAG | 0.995 ± 0.012
TATGCGTTGG | 1.007 ± 0.0024
GAGTCGGCGG | 0.9893 ± 0.0023
TGTGCCCCTT | 0.991 ± 0.042
GGGTTCGGAA | 0.9972 ± 0.0093
ATCTACGAAA | 1.31 ± 0.03
TTAGTTGCTT | 1.01 ± 0.03
GCTGGGAGTT | 1 ± 0.054
TTAGGGGTCT | 1.03 ± 0.019
TTTCGTCATC | 1.66 ± 0.91
ACATTTTGTT | 0.972 ± 0.051
ATCAAAAACG | 1.01 ± 0.029
CAAGTGAAGC | 0.9539 ± 0.005
GAGAGGGGTC | 1.01 ± 0.045
TACCGGATTT | 0.979 ± 0.0026
TTATGGGGCG | 1.02 ± 0.035
GTGTCATAGT | 0.9923 ± 0.0016

Sequence | switch fluorescence ratio
GACCGGAGTC | 1.03 ± 0.049
TATGGGAAGC | 1.03 ± 0.025
ATGCACAGAT | 0.994 ± 0.027
TCAGGGGTCT | 0.994 ± 0.011
AACTCGACCC | 1.05 ± 0.05
GCAGGGTAAA | 0.986 ± 0.02
GAGTTTGTAT | 0.961 ± 0.028
GGTAATGGTG | 1.0095 ± 0.00021
GGTCTAAGTG | 0.9816 ± 0.0034
TTACACGAGA | 1.054 ± 0.0057
TGGAGAAGGT | 1.02 ± 0.027
TTTAGTGTTT | 1.004 ± 0.007
TCGTGTTTGT | 1.02 ± 0.011
TAAAAAGTAT | 1 ± 0.015
GGCCTGTTTT | 1.09 ± 0.21
AAAGAAGGTG | 1.06 ± 0.12
AATTCCGATG | 1.29 ± 0.076
ATTTTTAATC | 1.06 ± 0.14
GGTACTA | 1.02 ± 0.0021
AATAAGGCCG | 0.996 ± 0.076
TCCAGACTCT | 1.02 ± 0.011
GGTTTTGTAA | 0.982 ± 0.018
GTTGTAGTTG | 0.98387 ± 0.00037
TTAGTTCGGG | 0.965 ± 0.023
GGACGTCGGA | 1.05 ± 0.12

Sequence | switch fluorescence ratio
ACTAATTAGC | 1.01 ± 0.031
CTGGGGCGTC | 0.993 ± 0.045
GGATTGTATG | 0.994 ± 0.032
AATATGAATT | 1.01 ± 0.016
TAACGTAACA | 1.26 ± 0.068
TGCCGAAGGT | 1.03 ± 0.024
TGGGGGCTT | 1.03 ± 0.014
AAAACGAGAT | 1.05 ± 0.039
TGCCCCCGGT | 1.08 ± 0.066
CTAGGCAATG | 1.44 ± 0.67
GTGATAACGG | 1.008 ± 0.0091
GGGAGGAGGG | 0.976 ± 0.035
GCATGTAGTG | 0.9794 ± 0.005
GGGGCAAGCG | 1.04 ± 0.028
TTCAGCAATT | 1.57 ± 0.31
TACTTTTTGG | 0.9872 ± 0.0092
CAAGGGTGGT | 1.03 ± 0.023
AATTGCGGCC | 0.979 ± 0.045
GCTCTTTGAA | 1.01 ± 0.012
CGTGCCATAG | 1 ± 0.015
TTCAGGATAC | 1.19 ± 0.043
AATGAAAGGT | 1.01 ± 0.022
ACTCGGGCAG | 0.9937 ± 0.002
AGTTTTAACG | 0.974 ± 0.073
TTTCAGTTTT | 1.1 ± 0.22

Sequence | switch fluorescence ratio
CGAATTTTCG | 0.976 ± 0.012
GGGCAAGACA | 1.23 ± 0.018
AGGGGGTTCT | 1.017 ± 0.0056
TTTAACTGG | 1.03 ± 0.036
GGTTTAAAGA | 1 ± 0.038
TAAATCCGGG | 1 ± 0.022
ATGGAAGTG | 1.001 ± 0.0015
AATCTTGGGA | 0.977 ± 0.028
CATTTCAGG | 1.05 ± 0.033
AGGGACTAGA | 1 ± 0.025
TTTTAAGTTG | 1.01 ± 0.045
GCGGGAAAGG | 0.978 ± 0.012
TACTGAATGT | 1.02 ± 0.013
TTGTCCGCGG | 1.06 ± 0.091
TGGCGGACAG | 0.99 ± 0.026
TGGGTTGGCT | 1.015 ± 0.0098
TAGGTGGTCC | 0.9892 ± 0.0014
ATTTGGATGC | 1.01 ± 0.042
AGTGATGTTC | 0.976 ± 0.016
ATGATACTTC | 0.9968 ± 0.0027
TGCTGTTGGA | 0.953 ± 0.011
CTAATTGTTT | 0.973 ± 0.025
TGATTCACTG | 0.9907 ± 0.0075
ATAGGAGTTG | 1.033 ± 0.0089
TAAAATTTAA | 1.01 ± 0.05
